Biological target: PP1G(7–300) (mouse) (UniProt P63087)

- dephosphorylation as a substrate of the PPP1R15B-MBP-PP1-actin ternary complex, against wildtype eIF2a^P (Figure 8B): > 10 fold
- dephosphorylation as a substrate of the PPP1R15B-MBP-PP1 binary complex, against wildtype eIF2a^P (Figure 8B): 2 fold
Substance: eIF2a^P (1–185) R66E; K86E double mutant (domain or fragment)
